Results from patent US7211424B1, “Mammalian Subtilisin/kexin isozyme SKI-1: a proprotein convertase with a unique cleavage specificity” (Institut de Recherches Cliniques de Montreal, priority 1999, dated 2007).
Like-named read-outs stand apart in the source and are kept apart here.

Legend:
SKI-1 [1] = target: T1, SKI-1 (Homo sapiens, UniProt Q14703); experiment: Example 6: synthetic peptides examined as possible substrates of recombinant SKI-1; type: biochemical; parameters: made in house
T1 sequence (Q14703 187-1052): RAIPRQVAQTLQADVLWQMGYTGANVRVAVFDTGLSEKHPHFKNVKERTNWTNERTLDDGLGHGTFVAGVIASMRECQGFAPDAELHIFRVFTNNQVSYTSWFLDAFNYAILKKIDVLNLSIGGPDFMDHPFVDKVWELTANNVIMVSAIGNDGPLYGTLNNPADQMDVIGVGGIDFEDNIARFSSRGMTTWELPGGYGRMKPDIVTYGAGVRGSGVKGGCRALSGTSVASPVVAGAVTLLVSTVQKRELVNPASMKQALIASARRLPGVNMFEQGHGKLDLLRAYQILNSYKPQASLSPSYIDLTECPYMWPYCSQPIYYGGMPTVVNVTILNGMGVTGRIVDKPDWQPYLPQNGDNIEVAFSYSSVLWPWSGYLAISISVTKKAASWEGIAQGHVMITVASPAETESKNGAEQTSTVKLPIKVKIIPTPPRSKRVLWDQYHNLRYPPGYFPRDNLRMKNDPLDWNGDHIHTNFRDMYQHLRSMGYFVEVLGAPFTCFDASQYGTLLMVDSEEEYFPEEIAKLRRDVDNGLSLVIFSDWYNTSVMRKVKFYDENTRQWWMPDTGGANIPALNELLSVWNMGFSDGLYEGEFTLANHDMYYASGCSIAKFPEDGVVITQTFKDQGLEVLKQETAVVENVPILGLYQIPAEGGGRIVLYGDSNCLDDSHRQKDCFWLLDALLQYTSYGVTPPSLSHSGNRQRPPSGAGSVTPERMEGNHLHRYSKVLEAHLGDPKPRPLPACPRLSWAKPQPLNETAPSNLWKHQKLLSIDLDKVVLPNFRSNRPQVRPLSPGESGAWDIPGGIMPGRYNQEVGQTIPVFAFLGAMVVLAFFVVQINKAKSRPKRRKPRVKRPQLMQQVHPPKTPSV
Description: A large number of synthetic peptides based on potential cleavage sites in the hSKI-1 prodomain, proBDNF and the loop region of SREBP-2 were synthesized.
These peptides were examined as possible substrates of SKI-1.

SKI-1 [2] = target: T2, SKI-1 (Homo sapiens, UniProt Q14703); type: biochemical
T2 sequence (Q14703 187-998 limits assumed): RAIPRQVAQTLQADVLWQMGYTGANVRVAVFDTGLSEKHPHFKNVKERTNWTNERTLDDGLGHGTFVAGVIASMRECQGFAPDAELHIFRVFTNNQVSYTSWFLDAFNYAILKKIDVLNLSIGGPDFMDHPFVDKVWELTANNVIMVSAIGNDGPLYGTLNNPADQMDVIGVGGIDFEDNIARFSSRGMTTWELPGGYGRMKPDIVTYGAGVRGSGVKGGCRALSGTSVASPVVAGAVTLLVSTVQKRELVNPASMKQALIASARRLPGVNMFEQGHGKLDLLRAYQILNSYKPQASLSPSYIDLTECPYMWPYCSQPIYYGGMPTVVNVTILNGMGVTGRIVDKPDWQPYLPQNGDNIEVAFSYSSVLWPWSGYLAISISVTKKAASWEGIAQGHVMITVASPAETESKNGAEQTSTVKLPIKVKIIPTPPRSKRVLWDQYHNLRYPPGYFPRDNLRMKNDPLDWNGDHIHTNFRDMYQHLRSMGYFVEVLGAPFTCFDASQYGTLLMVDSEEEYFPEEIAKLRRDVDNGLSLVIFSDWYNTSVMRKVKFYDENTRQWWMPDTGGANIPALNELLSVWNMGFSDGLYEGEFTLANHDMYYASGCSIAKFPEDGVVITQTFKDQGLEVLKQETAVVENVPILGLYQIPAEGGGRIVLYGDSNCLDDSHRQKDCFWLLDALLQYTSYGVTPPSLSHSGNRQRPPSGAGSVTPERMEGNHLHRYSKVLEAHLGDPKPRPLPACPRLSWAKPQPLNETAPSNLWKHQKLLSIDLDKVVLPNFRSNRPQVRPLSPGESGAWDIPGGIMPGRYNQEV

SKI-1 [3] = target: T1, SKI-1; details: previously established (ref. 10); cited from earlier work
SKI-1 [4] = target: T1, SKI-1; type: cell-based; parameters: The VV recombinant of full-length hSKI-1 has been described (10); expressed in transfected cells; host or cells: COS-7 cells co-infected with vv:BDNF and vv:SKI-1 (with vv:WT, vv:PIT or vv:PDX)
[5] = target: T3, peptide X, Q-hSKI-1 (132-142): Abz-VFRSLKYAESD-Y(NO2)-A
T3 chain: XVFRSLKYAESDXA

[6] = target: T4, peptide XI, Q-hSKI-1 (134-142): Abz-RSLKYAESD-Y(NO2)-A
T4 chain: XRSLKYAESDXA

BTMD-hSKI-1 = target: T5, BTMD-hSKI-1 (Homo sapiens, UniProt Q14703); type: biochemical
T5 sequence (Q14703 187-997 limits assumed): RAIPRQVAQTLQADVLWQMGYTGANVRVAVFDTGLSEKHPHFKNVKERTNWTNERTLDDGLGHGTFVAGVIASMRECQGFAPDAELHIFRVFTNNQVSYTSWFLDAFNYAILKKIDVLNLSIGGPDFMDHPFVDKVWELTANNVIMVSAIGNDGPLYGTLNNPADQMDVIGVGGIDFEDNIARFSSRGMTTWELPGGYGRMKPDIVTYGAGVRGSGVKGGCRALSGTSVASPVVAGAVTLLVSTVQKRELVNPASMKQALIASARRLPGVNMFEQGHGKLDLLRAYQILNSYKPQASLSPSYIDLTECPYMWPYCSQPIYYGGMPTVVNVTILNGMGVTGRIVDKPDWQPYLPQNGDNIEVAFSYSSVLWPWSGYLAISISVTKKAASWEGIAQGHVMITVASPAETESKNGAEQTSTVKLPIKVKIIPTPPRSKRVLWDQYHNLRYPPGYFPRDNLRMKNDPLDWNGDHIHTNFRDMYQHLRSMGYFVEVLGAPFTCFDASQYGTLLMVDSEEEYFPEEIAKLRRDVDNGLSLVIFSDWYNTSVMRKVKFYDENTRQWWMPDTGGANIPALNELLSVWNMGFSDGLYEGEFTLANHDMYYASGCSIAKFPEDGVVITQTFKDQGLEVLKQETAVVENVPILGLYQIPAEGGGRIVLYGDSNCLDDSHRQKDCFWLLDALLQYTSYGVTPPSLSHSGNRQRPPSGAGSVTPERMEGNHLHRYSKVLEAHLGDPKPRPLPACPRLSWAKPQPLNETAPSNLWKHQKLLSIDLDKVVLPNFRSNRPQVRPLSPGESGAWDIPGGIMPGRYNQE

## Ser-Ser-Arg-Arg-Leu-Leu↓Arg-Ala-Ile-Glu [(iv)]
SKI-1 [1]
  cleavage by the recombinant SKI-1: efficiently cleaved

## PQRKVFRSLKYAESD [IX]
SKI-1 [1]
  cleavage by the recombinant SKI-1: efficiently cleaved

## c1cnc2c(c1)ccc1cccnc12 [O-Phenanthroline, o-phenanthroline]
SKI-1 [2]; at 1 mM
  inhibition of the processing of proBDNF by SKI-1: 25%
SKI-1 [2]; overnight 37° C., pH 6.0, PMSF 0.5 mM + pAPMSF 50 μM, o-phenanthroline 5 mM, EDTA 10 mM
  inhibition of the processing of proBDNF by SKI-1: effectively inhibit

## RSVL-MCA
SKI-1 [3]
  cleavage of fluorogenic MCA peptides lacking P′ residues: does not cleave

## RGLTT-MCA
SKI-1 [3]
  cleavage of fluorogenic MCA peptides lacking P′ residues: does not cleave

## α1-antitrypsin Pittsburgh [α1-PIT]
SKI-1 [4]
  level of the 28 kDa BDNF product: neither α1-PIT nor α1-PDX affect the level of the 28 kDa product

## RGLT-MCA
SKI-1 [3]
  cleavage of fluorogenic MCA peptides lacking P′ residues: does not cleave

## Ser-Gly-Ser-Gly-Arg-Ser-Val-Leu↓Ser-Phe-Glu-Ser [(x)]
SKI-1 [1]
  cleavage by the recombinant SKI-1: efficiently cleaved

B1: 98 kDa shed form of SKI-1 (sSKI-1) (protein)
chain: RAIPRQVAQTLQADVLWQMGYTGANVRVAVFDTGLSEKHPHFKNVKERTNWTNERTLDDGLGHGTFVAGVIASMRECQGFAPDAELHIFRVFTNNQVSYTSWFLDAFNYAILKKIDVLNLSIGGPDFMDHPFVDKVWELTANNVIMVSAIGNDGPLYGTLNNPADQMDVIGVGGIDFEDNIARFSSRGMTTWELPGGYGRMKPDIVTYGAGVRGSGVKGGCRALSGTSVASPVVAGAVTLLVSTVQKRELVNPASMKQALIASARRLPGVNMFEQGHGKLDLLRAYQILNSYKPQASLSPSYIDLTECPYMWPYCSQPIYYGGMPTVVNVTILNGMGVTGRIVDKPDWQPYLPQNGDNIEVAFSYSSVLWPWSGYLAISISVTKKAASWEGIAQGHVMITVASPAETESKNGAEQTSTVKLPIKVKIIPTPPRSKRVLWDQYHNLRYPPGYFPRDNLRMKNDPLDWNGDHIHTNFRDMYQHLRSMGYFVEVLGAPFTCFDASQYGTLLMVDSEEEYFPEEIAKLRRDVDNGLSLVIFSDWYNTSVMRKVKFYDENTRQWWMPDTGGANIPALNELLSVWNMGFSDGLYEGEFTLANHDMYYASGCSIAKFPEDGVVITQTFKDQGLEVLKQETAVVENVPILGLYQIPAEGGGRIVLYGDSNCLDDSHRQKDCFWLLDALLQYTSYGVTPPSLSHSGNRQRPPSGAGSVTPERMEGNHLHRYSKVLEAHLGDPKPRPLPACPRLSWAKPQPLNETAPSNLWKHQKLLSIDLDKVVLPNFRSNRPQVRPLSPGESGAWDIPGGIMPGRYNQ
[5]
  Km(app): 31.3 µM
  Vmax(app): 34 µmol/h
  Vmax(app)/Km(app): 1.1 h^-1L^-1
  cleavage of quenched fluorogenic peptide (mass spectrometry): both peptides were cleaved at the RSLK↓ (SEQ. ID. NO. 100) site by shed SKI-1 derived from HK293 cell transfects, but not by medium obtained from HK293 empty vector transfectants
[6]
  Km(app): 8.7 µM
  Vmax(app): 56.9 µmol/h
  Vmax(app)/Km(app): 6.5 h^-1L^-1
  cleavage of quenched fluorogenic peptide (mass spectrometry): both peptides were cleaved at the RSLK↓ (SEQ. ID. NO. 100) site by shed SKI-1 derived from HK293 cell transfects, but not by medium obtained from HK293 empty vector transfectants

B2: proBDNF: 32 kDa human pro-brain-derived neurotrophic factor, precursor substrate (protein, UniProt P23560 19-247, looked up)
pro-form: APMKEANIRGQGGLAYPGVRTHGTLESVNGPKAGSRGLTSLADTFEHVIEELLDEDQKVRPNEENNKDADLYTSRVMLSSQVPLEPPLLFLLEEYKNYLDAANMSMRVRRHSDPARRGELSVCDSISEWVTAADKKTAVDMSGGTVTVLEKVPVSKGQLKQYFYETKCNPMGYTKEGCRGIDKRHWNSQCRTTQSYVRALTMDSKKRIGWRFIRIDTSCVCTLTIKRGR
modifications: pro-form
notes: 32 kDa human pro-brain-derived neurotrophic factor, precursor substrate
SKI-1 [4]
  intracellular cleavage of precursor by SKI-1: could be cleaved intracellularly by SKI-1

B3: ˜14 kDa peptide: ˜14 kDa N-terminal fragment of the SKI-1 prosegment, major secreted form (protein)
chain: GKKHLGDRLEKKSFEKAPCPGCSHLTLKVEFSSTVVEYEYIVAFNGYFTAKARNSFISSALKSSEVDNWRIIPRNNPSSDYPSDFEVIQIKEKQKAGLLTLEDHPNIKRVTPQRKVFRSL
BTMD-hSKI-1
  inhibitory activity of the RP-HPLC-fractionated native prosegment: not inhibitory
